Measurements from KR20150068913A.

Target: 광견병 바이러스 CVS-11의 야생형 G 단백질 (rabies virus CVS-11) (UniProt O92284)
Assay: cell-based or functional assay

UniProt O92284, sequence (O92284 20-524 limits assumed): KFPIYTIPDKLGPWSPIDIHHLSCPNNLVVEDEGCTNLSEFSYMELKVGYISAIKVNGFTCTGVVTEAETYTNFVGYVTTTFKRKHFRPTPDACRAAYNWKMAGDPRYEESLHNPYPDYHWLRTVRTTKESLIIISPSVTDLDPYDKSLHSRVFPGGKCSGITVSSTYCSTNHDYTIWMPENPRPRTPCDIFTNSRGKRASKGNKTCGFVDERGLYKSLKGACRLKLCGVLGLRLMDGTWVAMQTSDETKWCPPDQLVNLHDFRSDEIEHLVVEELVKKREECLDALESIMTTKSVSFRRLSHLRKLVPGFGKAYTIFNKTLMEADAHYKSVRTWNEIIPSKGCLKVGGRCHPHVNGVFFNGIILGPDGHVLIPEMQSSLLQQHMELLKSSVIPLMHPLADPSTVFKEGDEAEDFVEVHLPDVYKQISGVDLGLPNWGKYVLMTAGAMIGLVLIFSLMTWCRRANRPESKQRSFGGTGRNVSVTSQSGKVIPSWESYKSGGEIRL

B1: 이 건 항체 2 (antibody, V domains shown)
VH: EVQLVESGAEVKKPGASVKVSCKASGYTFTSYDVSWVRQAPGQGLEWMGWISAYRGNTKYAQKFQGRVTMTTDTSTSTAYMELRSLRSDDTAVYYCARAKSHPYYDFWSGYYVPGAFDIWGQGTMVTVSS
VL: ELQMTQSPSSLSASVGDRVTITCQASQDISNYLTWYQQKPGKAPKLLIYDASNLETGVPSRFSGSGSGTDFTFTISSLQPEDIATYYCQQYDNLPPTFGGGTKVEIKR
Question: For B1, which RFFIT IU/mL, CVS-11 is on record?
Answer: 1.59 IU/mL

Question: And the RFFIT IU/mg, CVS-11 (중화능력)?
Answer: 7940 IU/mg

Question: And the RFFIT Titer, CVS-11?
Answer: 270
